Our source for the Kd values is PMC12484072 (Frontiers in Microbiology, 2025).

Where “and” joins values, the source holds several entries; their conditions need not be identical. Equal values may be shown once. Bridge positions count the residues as written; N and C are the ends. Square brackets hold non-standard residues; d marks the D form. Ends that are not written are not given here. dOrn = NCCC[C@@H](N)C(=O)O

The target of the assay is T1, SaNsrP-ECD, soluble extracellular domain of SaNsrP (S. agalactiae).
T1 construct: also called SaNsrFP ECD
Description: other fluorescence titration. As to conditions: both partners purified.

For ICL[dE]IK[dOrn]I[dF]H[dD]N (lactam 6-C; also: N-terminal thiazoline: Ile1-Cys2 condensed) [bacitracin], the Kd – broadly, a measure of binding affinity in units of concentration – is 259 µM and 304 µM.
